This passage reports cell-associated 125I-leptin in BPRCL mouse liver cells after pre-incubation with increasing AdipoQ (AQ) or globular AdipoQ (AQ-GH) results from patent publication US20060252678A1.

A value given as a limit tells only on which side of the number the result lay.

The test deals with mouse LSR (lipolysis stimulated receptor) (mouse) (UniProt Q99KG5). In words: cell-based or functional assay.
Sequence of UniProt Q99KG5 (Q99KG5 36-594): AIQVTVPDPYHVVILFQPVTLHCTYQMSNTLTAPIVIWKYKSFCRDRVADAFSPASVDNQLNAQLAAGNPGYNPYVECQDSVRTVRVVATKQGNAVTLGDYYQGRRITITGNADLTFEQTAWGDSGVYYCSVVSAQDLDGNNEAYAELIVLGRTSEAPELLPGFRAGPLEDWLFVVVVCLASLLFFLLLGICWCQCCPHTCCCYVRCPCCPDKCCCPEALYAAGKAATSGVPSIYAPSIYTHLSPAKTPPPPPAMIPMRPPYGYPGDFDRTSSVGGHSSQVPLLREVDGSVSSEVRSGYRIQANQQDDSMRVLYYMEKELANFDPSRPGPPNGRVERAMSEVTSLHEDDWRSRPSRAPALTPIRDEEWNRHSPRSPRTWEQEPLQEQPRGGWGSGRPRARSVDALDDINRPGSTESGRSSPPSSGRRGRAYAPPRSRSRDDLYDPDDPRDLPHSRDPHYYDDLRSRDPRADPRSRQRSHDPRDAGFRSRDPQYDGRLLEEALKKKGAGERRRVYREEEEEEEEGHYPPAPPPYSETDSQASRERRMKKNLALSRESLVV

Turning to “125I-mouse leptin (from UniProt P41160 22-167) (ligand)”, the cell-associated 125I-leptin in BPRCL mouse liver cells after pre-incubation with increasing AdipoQ (AQ) or globular AdipoQ (AQ-GH) was greater than 30%.
